Reference: IntAct's records for PubMed 22430200

B1: E3 ubiquitin-protein ligase RNF31 (Homo sapiens), Q96EP0 (parent)
chain: MPGEEEERAFLVAREELASALRRDSGQAFSLEQLRPLLASSLPLAARYLQLDAARLVRCNAHGEPRNYLNTLSTALNILEKYGRNLLSPQRPRYWRGVKFNNPVFRSTVDAVQGGRDVLRLYGYTEEQPDGLSFPEGQEEPDEHQVATVTLEVLLLRTELSLLLQNTHPRQQALEQLLEDKVEDDMLQLSEFDPLLREIAPGPLTTPSVPGSTPGPCFLCGSAPGTLHCPSCKQALCPACDHLFHGHPSRAHHLRQTLPGVLQGTHLSPSLPASAQPRPQSTSLLALGDSSLSSPNPASAHLPWHCAACAMLNEPWAVLCVACDRPRGCKGLGLGTEGPQGTGGLEPDLARGRWACQSCTFENEAAAVLCSICERPRLAQPPSLVVDSRDAGICLQPLQQGDALLASAQSQVWYCIHCTFCNSSPGWVCVMCNRTSSPIPAQHAPRPYASSLEKGPPKPGPPRRLSAPLPSSCGDPEKQRQDKMREEGLQLVSMIREGEAAGACPEEIFSALQYSGTEVPLQWLRSELPYVLEMVAELAGQQDPGLGAFSCQEARRAWLDRHGNLDEAVEECVRTRRRKVQELQSLGFGPEEGSLQALFQHGGDVSRALTELQRQRLEPFRQRLWDSGPEPTPSWDGPDKQSLVRRLLAVYALPSWGRAELALSLLQETPRNYELGDVVEAVRHSQDRAFLRRLLAQECAVCGWALPHNRMQALTSCECTICPDCFRQHFTIALKEKHITDMVCPACGRPDLTDDTQLLSYFSTLDIQLRESLEPDAYALFHKKLTEGVLMRDPKFLWCAQCSFGFIYEREQLEATCPQCHQTFCVRCKRQWEEQHRGRSCEDFQNWKRMNDPEYQAQGLAMYLQENGIDCPKCKFSYALARGGCMHFHCTQCRHQFCSGCYNAFYAKNKCPEPNCRVKKSLHGHHPRDCLFYLRDWTALRLQKLLQDNNVMFNTEPPAGARAVPGGGCRVIEQKEVPNGLRDEACGKETPAGYAGLCQAHYKEYLVSLINAHSLDPATLYEVEELETATERYLHVRPQPLAGEDPPAYQARLLQKLTEEVPLGQSIPRRRK

Variants of: B1
Details: with hoil1_human RBCK1, Q9BYM8
Sequence of hoil1_human RBCK1, Q9BYM8 (Q9BYM8 whole entry): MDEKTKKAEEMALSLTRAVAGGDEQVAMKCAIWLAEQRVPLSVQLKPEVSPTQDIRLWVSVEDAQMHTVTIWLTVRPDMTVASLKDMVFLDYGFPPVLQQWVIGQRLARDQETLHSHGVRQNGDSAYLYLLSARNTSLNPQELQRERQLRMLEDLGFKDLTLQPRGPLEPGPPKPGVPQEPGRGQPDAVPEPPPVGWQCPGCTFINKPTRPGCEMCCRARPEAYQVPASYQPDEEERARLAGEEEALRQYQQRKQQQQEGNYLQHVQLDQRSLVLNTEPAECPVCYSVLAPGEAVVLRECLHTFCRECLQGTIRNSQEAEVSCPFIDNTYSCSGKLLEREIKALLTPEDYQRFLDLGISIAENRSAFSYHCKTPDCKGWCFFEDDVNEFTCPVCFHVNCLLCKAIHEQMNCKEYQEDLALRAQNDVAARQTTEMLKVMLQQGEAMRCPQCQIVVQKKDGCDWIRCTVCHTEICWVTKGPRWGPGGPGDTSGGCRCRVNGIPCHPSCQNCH

| effect of a mutation on the interaction | Variant |
| --- | --- |
| disrupting interaction | L617A |

Variants of: B1
Details: with hoil1_human RBCK1, Q9BYM8
Remark: another data set of the same source

| effect of a mutation on the interaction | Variant |
| --- | --- |
| decreasing interaction | L617A |
| decreasing interaction | Q613A |

Variants of: B1
Details: with hoil1_human RBCK1, Q9BYM8
Remark: another data set of the same source

| effect of a mutation on the interaction | Variant |
| --- | --- |
| disrupting interaction | R623A |

Variants of: B1
Details: with hoil1_human RBCK1, Q9BYM8
Remark: another data set of the same source

| effect of a mutation on the interaction | Variant |
| --- | --- |
| disrupting interaction | Q613A |

Variants of: B1
Details: with hoil1_human RBCK1, Q9BYM8
Remark: another data set of the same source

| effect of a mutation on the interaction | Variant |
| --- | --- |
| disrupting interaction | F620A |

Variants of: B1
Details: with hoil1_human RBCK1, Q9BYM8
Remark: another data set of the same source

| effect of a mutation on the interaction | Variant |
| --- | --- |
| decreasing interaction | F620A |
